# Data as given in patent US20250034551A1, “METHODS AND SYSTEMS FOR HIGH-THROUGHPUT BIOCHEMICAL SCREENS” (THINK BIOSCIENCE, INC., priority 2021, published 2025).
# Target: kinase substrate domain (MidT) fused to the omega subunit of RNA polymerase (RpoZ), no protease recognition site in the linker, P0A800
# Sequence (P0A800 whole entry, looked up, the tested form may be a part): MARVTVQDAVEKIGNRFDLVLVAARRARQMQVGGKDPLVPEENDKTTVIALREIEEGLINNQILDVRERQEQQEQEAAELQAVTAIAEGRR
protein,measurement,value
Striatum-enriched protein-tyrosine phosphatase catalytic domain (STEP282-563) (protein) MSSGVDLGTENLYFQSMSRVLQAEELHEKALDPFLLQAEFFEIPMNFVDPKEYDIPGLVRKNRYKTILPNPHSRVCLTSPDPDDPLSSYINANYIRGYGGEEKVYIATQGPIVSTVADFWRMVWQEHTPIIVMITNIEEMNEKCTEYWPEEQVAYDGVEITVQKVIHTEDYRLRLISLKSGTEERGLKHYWFTSWPDQKTPDRAPPLLHLVREVEEAAQQEGPHCAPIIVHCSAGIGRTGCFIATSICCQQLRQEGVVDILKTTCQLRQDRGGMIQTCEQYQFVHHVMSLYEKQLSHQS,spectinomycin resistance of E. coli with the PTP-specific B2H,"did not yield functional two-hybrid systems, most likely due to low activity against the MidT substrate"
